# Reference: US20090286252A1 (NEW YORK UNIVERSITY, published 2009)
# B1: β3-endonexin short form (EnS) expressed from pJG4-5 (other, not shown: large carriers)
# chain: MPVKRSLKLDGLLEENSFDPSKITRKKSVITYSPTTGTCQMSLFASPTSSEEQKHRNGLSNEKRKKLNHPSLTESKESTTKDNDEFMMLLSKVEKLSEEIMEIMQNLSSIQ
# notes: Yeast two-hybrid prey; also called pJG4-5/EnS
# B2: LexA alone (other, UniProt P0A7C2 1-202, looked up)
# chain: MKALTARQQEVFDLIRDHISQTGMPPTRAEIAQRLGFRSPNAAEEHLKALARKGVIEIVSGASRGIRLLQEEEEGLPLVGRVAAGEPLLAQQHIEGHYQVDPSLFKPNADFLLRVSGMSMKDIGIMDGDLLAVHKTQDVRNGQVVVARIDDEVTVKRLKKQGNKVELLPENSEFKPIVVDLRQQSFTIEGLAVGVIRNGDWL
# notes: Negative control bait; also called bait LexA alone (negative control)
# Legend:
# [1] = molecular target: full length cTRα (chicken) (UniProt P04625); experiment: cell-based or functional assay
# [2] = molecular target: T1, LexA-hGR LBD (human, UniProt P0A7C2 1-202; P04150 485-777, limits assumed); experiment: yeast two-hybrid (data not shown)
# T1 construct: also called LexA-GR
# T1 sequence (looked up): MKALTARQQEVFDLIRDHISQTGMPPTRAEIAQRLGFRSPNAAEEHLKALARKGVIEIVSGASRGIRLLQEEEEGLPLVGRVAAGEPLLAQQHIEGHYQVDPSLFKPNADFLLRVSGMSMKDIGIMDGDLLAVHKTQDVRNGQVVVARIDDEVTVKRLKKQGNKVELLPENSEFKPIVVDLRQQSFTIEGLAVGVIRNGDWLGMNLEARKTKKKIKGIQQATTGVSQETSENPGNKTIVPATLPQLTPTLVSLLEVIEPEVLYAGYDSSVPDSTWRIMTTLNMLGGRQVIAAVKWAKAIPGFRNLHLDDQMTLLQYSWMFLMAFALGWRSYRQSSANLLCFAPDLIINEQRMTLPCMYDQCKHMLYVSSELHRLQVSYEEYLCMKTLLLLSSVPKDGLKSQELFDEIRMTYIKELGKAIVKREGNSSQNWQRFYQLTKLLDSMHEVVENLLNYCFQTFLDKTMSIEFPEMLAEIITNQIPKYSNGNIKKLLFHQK
# Method: (§1) The following receptor baits were used: LexA-cTRα LBD, LexA-hTRβ LBD, LexA-hRARα LBD, LexA-hRXRα LBD, and LexA-hGR LBD. […] Yeast cells harboring appropriate plasmids were grown in selective media with Gal/Raf in the presence or absence of cognate ligand (1 μM T3 for TR, all trans or 9-cis RA for RAR, 9-cis RA for RXR, and 10 μM deoxycorticosterone for GR) overnight before β-galactosidase activity was assayed using o-Nitrophenyl β-D-Galactopyranoside as the substrate. β-galactosidase units are expressed as (O.D. 420 nm×1000)/(minutes of incubation×O.D. 600 nm of yeast suspension).
# [3] = molecular target: T2, LexA-hRARα LBD (human, UniProt P0A7C2 1-202; P10276 154-462, limits assumed); experiment: yeast two-hybrid (data not shown)
# T2 construct: also called LexA-RAR
# T2 sequence (looked up): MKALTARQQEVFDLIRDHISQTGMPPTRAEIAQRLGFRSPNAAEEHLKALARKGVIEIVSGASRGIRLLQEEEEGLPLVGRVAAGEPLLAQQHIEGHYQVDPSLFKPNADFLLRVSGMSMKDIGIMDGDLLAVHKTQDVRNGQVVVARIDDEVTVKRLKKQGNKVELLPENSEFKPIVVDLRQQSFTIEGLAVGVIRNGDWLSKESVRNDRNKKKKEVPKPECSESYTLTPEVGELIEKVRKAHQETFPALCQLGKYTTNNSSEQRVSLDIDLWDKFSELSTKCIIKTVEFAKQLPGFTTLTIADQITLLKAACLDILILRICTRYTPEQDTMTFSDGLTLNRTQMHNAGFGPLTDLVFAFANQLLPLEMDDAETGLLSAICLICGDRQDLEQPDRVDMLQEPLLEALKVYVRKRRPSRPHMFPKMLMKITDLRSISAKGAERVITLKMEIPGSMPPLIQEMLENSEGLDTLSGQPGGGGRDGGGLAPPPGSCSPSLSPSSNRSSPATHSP
# Method: as §1
# [4] = molecular target: T3, LexA-cTRα LBD (chicken, UniProt P0A7C2 1-202; P04625 120-408, limits assumed); experiment: yeast two-hybrid, β-galactosidase (FIG. 8B)
# T3 construct: also called LexA-TR LBD; LexA-TR
# T3 sequence (looked up): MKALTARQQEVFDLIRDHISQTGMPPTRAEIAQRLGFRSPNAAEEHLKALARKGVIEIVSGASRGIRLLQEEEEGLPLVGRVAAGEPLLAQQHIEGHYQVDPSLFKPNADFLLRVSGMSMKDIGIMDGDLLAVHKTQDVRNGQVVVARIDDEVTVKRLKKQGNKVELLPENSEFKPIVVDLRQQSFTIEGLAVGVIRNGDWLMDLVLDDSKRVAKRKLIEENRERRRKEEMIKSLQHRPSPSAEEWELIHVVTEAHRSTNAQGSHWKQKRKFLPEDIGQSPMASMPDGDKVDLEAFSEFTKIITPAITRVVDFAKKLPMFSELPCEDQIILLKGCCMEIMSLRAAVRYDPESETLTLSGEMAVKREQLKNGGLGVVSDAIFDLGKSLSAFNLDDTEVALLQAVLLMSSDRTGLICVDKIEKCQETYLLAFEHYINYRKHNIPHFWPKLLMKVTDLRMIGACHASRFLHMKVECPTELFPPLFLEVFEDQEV
# Method: as §1
# [5] = molecular target: T4, LexA-hRXRα LBD (human, UniProt P0A7C2 1-202; P19793 198-462, limits assumed); experiment: yeast two-hybrid, β-galactosidase (FIG. 8B)
# T4 construct: also called LexA-RXR
# T4 sequence (looked up): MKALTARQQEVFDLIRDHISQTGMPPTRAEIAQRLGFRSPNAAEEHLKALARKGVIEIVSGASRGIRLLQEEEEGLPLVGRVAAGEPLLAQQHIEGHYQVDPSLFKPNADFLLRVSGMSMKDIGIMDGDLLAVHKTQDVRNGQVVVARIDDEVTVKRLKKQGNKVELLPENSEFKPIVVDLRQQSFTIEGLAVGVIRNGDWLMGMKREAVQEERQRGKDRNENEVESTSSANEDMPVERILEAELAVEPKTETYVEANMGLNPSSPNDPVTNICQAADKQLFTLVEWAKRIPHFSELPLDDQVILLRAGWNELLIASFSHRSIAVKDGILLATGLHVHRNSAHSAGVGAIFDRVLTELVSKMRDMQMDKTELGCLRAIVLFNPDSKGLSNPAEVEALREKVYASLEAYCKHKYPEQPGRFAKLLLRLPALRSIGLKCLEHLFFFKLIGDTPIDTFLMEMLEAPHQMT
# Method: as §1
# [6] = molecular target: T5, B42-cTRα LBD (chicken, UniProt P04625 120-408); experiment: yeast two-hybrid (data not shown)
# T5 construct: also called B42-TR LBD; LBD of TR (fused with B-42)
# T5 sequence (looked up): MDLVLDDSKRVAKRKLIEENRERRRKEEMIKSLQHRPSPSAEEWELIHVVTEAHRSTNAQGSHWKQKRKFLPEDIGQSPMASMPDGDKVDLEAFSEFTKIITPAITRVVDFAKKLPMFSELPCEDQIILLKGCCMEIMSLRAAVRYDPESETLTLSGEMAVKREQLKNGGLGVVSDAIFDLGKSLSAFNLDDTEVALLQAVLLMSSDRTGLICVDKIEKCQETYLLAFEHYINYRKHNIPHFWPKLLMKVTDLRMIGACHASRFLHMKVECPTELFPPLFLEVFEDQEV
# Method: as §1
# [7] = molecular target: T6, B42-hRARα LBD (human, UniProt P10276 154-462); experiment: yeast two-hybrid (data not shown)
# T6 construct: also called B42-RAR LBD; LBD of RAR
# T6 sequence (looked up): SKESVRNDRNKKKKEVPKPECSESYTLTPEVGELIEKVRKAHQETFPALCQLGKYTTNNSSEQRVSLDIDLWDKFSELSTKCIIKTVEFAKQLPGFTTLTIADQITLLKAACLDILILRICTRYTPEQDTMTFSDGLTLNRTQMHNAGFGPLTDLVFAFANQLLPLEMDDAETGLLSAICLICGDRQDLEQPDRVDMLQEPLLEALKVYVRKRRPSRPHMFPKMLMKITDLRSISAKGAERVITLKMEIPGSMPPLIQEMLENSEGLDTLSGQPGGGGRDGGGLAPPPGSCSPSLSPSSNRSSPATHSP
# Method: as §1
# [8] = molecular target: T7, B42-hRXRα LBD (human, UniProt P19793 198-462); experiment: yeast two-hybrid (data not shown)
# T7 construct: also called B42-RXR LBD; LBD of RXR (fused with B-42)
# T7 sequence (looked up): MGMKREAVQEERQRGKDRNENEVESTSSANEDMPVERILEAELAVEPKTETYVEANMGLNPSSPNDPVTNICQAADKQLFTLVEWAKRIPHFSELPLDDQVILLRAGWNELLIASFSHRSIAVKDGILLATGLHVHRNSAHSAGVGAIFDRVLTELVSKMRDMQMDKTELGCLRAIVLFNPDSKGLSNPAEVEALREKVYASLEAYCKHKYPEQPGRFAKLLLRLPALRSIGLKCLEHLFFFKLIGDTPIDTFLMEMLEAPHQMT
# Method: as §1
molecule,measurement,setting,value
NRIF3 (full length) (from UniProt Q13352 1-177),enhancement of TR-mediated activation of the GH-TRE-tk-CAT reporter in HeLa cells (FIG. 5B),[1],3.5 fold
same,enhancement of TR-mediated activation of the IR-ΔMTV-CAT reporter in HeLa cells (FIG. 5A),[1],2.5 to 3 fold
B1,binding result,[2],no binding
same,binding result,[3],no binding
same,binding result,[4],no binding
same,binding result,[5],no binding
B2,binding result,[6],no binding
same,binding result,[7],no binding
same,binding result,[8],no binding
